From patent US20190300590A1 (PROTAGONIST THERAPEUTICS, published 2019)
*1 amine or outer side, *2 acyl side, *3 side chain or, on linkers, in order; H or OH if unused. Bridges are numbered along the chain shown (N, C = ends). Primed or numbered codes have the meaning given here. [ ]: non-standard residue; d: D form. Phe(4-(2-acetylaminoethoxy))″ = 4-(2-acetylaminoethoxy)phenylalanine, CC(=O)NCCOc1ccc(C[C@H](N[*:1])C(=O)[*:2])cc1; Phe(4-OMe)(3) = O-methyl-L-tyrosine (4-methoxy-L-phenylalanine), COc1ccc(C[C@H](N[*:1])C(=O)[*:2])cc1; Phe(4-tBu) = CC(C)(C)c1ccc(C[C@H](N)C(=O)O)cc1; 2Nal = N[C@@H](Cc1ccc2ccccc2c1)C(=O)O; AEF = NCCOc1ccc(C[C@H](N)C(=O)O)cc1; Gly(octyl) = CCCCCCCC[C@H](N)C(=O)O; hArg = N=C(N)NCCCC[C@H](N)C(=O)O; αMeL = CC(C)C[C@](C)(N)C(=O)O; Pen = CC(C)(S)[C@H](N)C(=O)O; hLeu = CC(C)CC[C@H](N)C(=O)O; αMeK = C[C@](N)(CCCCN)C(=O)O; αMeS = C[C@](N)(CO)C(=O)O; Iva = CC[C@](C)(N)C(=O)O; Abu = CC[C@H](N)C(=O)O; Dap = NC[C@H](N)C(=O)O; Aib = CC(C)(N)C(=O)O

What was measured:
[1] = biological target: T1, IL-23R on human cells (IL-23R-expressing DB cells; human NK cells) (human, UniProt Q5VWK5 24-629); assay: cell-based or functional assay
T1 sequence (looked up): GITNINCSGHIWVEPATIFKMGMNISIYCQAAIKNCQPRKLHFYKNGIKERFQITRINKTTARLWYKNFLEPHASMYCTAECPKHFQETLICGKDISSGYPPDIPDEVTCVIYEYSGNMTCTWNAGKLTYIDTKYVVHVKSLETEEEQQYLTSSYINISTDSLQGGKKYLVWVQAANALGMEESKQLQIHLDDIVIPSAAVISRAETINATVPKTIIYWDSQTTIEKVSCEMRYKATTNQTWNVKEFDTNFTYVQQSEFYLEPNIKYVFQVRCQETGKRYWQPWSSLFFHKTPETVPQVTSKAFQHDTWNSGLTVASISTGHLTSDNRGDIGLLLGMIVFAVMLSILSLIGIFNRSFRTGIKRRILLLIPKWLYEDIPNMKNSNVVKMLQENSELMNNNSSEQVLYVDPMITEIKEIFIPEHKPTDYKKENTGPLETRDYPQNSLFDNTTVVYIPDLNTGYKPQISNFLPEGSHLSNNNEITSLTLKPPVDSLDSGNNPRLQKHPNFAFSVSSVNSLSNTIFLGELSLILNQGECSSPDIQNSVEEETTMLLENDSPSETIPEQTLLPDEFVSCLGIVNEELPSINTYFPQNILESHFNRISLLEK

[2] = biological target: T2, IL23R_huFC (human, UniProt Q5VWK5 24-353); assay: human ELISA vs IL-23
T2 sequence (looked up): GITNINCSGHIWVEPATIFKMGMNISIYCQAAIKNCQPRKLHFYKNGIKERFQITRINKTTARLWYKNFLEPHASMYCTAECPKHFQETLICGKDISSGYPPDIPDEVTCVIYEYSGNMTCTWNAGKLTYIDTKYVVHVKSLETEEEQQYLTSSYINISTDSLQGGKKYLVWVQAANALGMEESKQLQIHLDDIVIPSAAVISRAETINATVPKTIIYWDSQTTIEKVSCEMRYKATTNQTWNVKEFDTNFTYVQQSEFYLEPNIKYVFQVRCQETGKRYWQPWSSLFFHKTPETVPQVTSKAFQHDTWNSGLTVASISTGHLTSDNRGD

[3] = biological target: T3, IL-23R on DB cells (human, UniProt Q5VWK5 24-629); assay: cell-based or functional assay
T3 sequence (looked up): T1 sequence (looked up)

Ac-[Abu]TTWQC[AEF][2Nal][αMeK]ENG-NH2 (thioether 1-6) [Ac-Cyclo-[[Abu]-TTWQC]-[Phe[4-(2-aminoethoxy)]]-[2-Nal]-[α-MeLys]-ENG-NH2]
pStat3 HTRF IC50 [1]: < 10 nM | IC50 [2]: < 10 nM

Ac-[Abu]QTWQC[AEF][2Nal][αMeS]K(Ac)NG-NH2 (thioether 1-6) [Ac-Cyclo-[[Abu]-QTWQC]-[Phe[4-(2-aminoethoxy)]]-[2-Nal]-[α-MeSer]-[Lys(Ac)]-NG-NH2]
pStat3 HTRF IC50 [1]: < 10 nM | IC50 [2]: < 10 nM

Ac-[Abu]QTWQC[AEF][2Nal][αMeK][hArg]NG-NH2 (thioether 1-6) [Ac-Cyclo-[[Abu]-QTWQC]-[Phe[4-(2-aminoethoxy)]]-2-Nal]-[α-MeLys]-hRNG-NH2]
pStat3 HTRF IC50 [1]: < 10 nM | IC50 [2]: < 10 nM

Ac-[Abu]QTWQC[AEF][2Nal][Iva]K(Ac)NG-NH2 (thioether 1-6) [Ac-Cyclo-[[Abu]-QTWQC]-[Phe[4-(2-aminoethoxy)]]-[2-Nal]-[α-Me-Gly(Ethyl)]Lys(Ac)]-NG-NH2]
pStat3 HTRF IC50 [1]: < 10 nM | IC50 [2]: < 10 nM

XQTWQXFXXENN (Ac; Pen-Pen disulfide; Phe(4-OMe); 2-Nal; Aib; NH2) [Ac-[Pen]-QTWQ-[Pen]-[Phe(4-OMe)]-[2-Nal]-[Aib]-ENN-NH2]
pStat3 HTRF IC50 [3]: < 10 nM

XQTWQXYXXENG (Ac; Pen-Pen disulfide; 2-Nal; α-MeOrn; NH2) [Ac-[Pen]-QTWQ-[Pen]-Y-[2-Nal]-[α-MeOrn]-ENG-NH2]
pStat3 HTRF IC50 [3]: 10 to 25 nM

XQTWQXFXXKNN (Ac; Pen-Pen disulfide; Phe[4-(2-aminoethoxy)]; 2-Nal; Aib; Lys(Ac); NH2) [Ac-[Pen]-QTWQ-[Pen]-[Phe[4-(2-aminoethoxy)]-[2-Nal]-Aib-[Lys(Ac)]-NN-NH2]
pStat3 HTRF IC50 [3]: < 10 nM

Ac-[Abu]QTWQC[AEF][2Nal][Aib]KNG-NH2 (thioether 1-6) [Ac-Cyclo-[[Abu]-QTWQC]-[Phe[4-(2-aminoethoxy)]]-[2-Nal]-[Aib]-KNG-NH2]
pStat3 HTRF IC50 [1]: < 10 nM | IC50 [2]: < 10 nM

XQTWQCFXXKNG (as bracketed in name; thioether cyclo) [Ac-Cyclo-[[Abu]-QTWQC]-[Phe[4-(2-aminoethoxy)]]-[2-Nal]-[α-Me-Orn]-[Lys(Ac)]-NG-NH2]
pStat3 HTRF IC50 [1]: < 10 nM | IC50 [2]: < 10 nM

Ac-[Abu]QTWQC[AEF][2Nal][Aib]K(Ac)NG-NH2 (thioether 1-6) [Ac-Cyclo-[[Abu]-QTWQC]-[Phe[4-(2-aminoethoxy)]]-[2-Nal]-[Aib]-[Lys(Ac)]-NG-NH2]
pStat3 HTRF IC50 [1]: < 10 nM | IC50 [2]: < 10 nM

XQTWQXFXXKNN (Ac; Pen-Pen disulfide; Phe(4-OMe); 2-Nal; Aib; Lys(Ac); NH2) [Ac-[Pen]-QTWQ-[Pen]-[Phe(4-OMe)]-[2-Nal]-[Aib]-[Lys(Ac)]-NN-NH2]
pStat3 HTRF IC50 [3]: < 10 nM

Ac-[Pen][Dap](Ac)TWQ[Pen][Phe(4-(2-acetylaminoethoxy))″][2Nal][αMeK](Ac)ENG-NH2 (disulfide 1-6 (inferred)) [Ac-[Pen]-Dap(Ac)TWQ-[Pen]-[Phe[4-(2-acetylaminoethoxy)]-[2-Nal]-[α-MeLys(Ac)]-ENG-NH2]
pStat3 HTRF IC50 [3]: < 10 nM

XQTWQXFXXENN (Ac; Pen-Pen disulfide; Phe[4-(2-aminoethoxy)]; 2-Nal; Aib; NH2) [Ac-[Pen]-QTWQ-[Pen]-[Phe[4-(2-aminoethoxy)]-[2-Nal]-[Aib]-ENN-NH2]
pStat3 HTRF IC50 [3]: < 10 nM

Ac-[Abu]QTWQ[dC]YW[hLeu]ENG-NH2 (thioether 1-6) [Ac-Cyclo-[Abu]-QTWQ-(D)Cys]]-YW-[hLeu]-ENG-NH2]
IC50 [2]: > 1000 nM

Ac-[Abu]QTWQC[Phe(4-OMe)(3)][Phe(4-tBu)][αMeK]ENG-NH2 (thioether 1-6) [Ac-Cyclo-[[Abu]-QTWQC]-[Phe(4-OMe)]-[Phe(4-tBu)]-[α-MeLys]-ENG-NH2]
IC50 [2]: > 1000 nM

Ac-[Abu]QTWQC[Phe(4-OMe)(3)][Gly(octyl)][αMeK]K(Ac)NG-NH2 (thioether 1-6) [Ac-Cyclo-[[Abu]-QTWQC]-[Phe(4-OMe)]-[Octgly]-[α-MeLys]-[Lys(Ac)]-NG-NH2]
IC50 [2]: ~10000 nM

Ac-[Abu]QTWQC[AEF]W[αMeL]ENG-NH2 (thioether 1-6) [Ac-Cyclo-[[Abu]-QTWQC]-[Phe[4-(2-aminoethoxy)]]-W-[α-Me-Leu]-ENG-NH2]
pStat3 HTRF IC50 [1]: < 10 nM | IC50 [2]: < 10 nM

XQTWQXFXXENN (Ac; Pen-Pen disulfide; Phe[4-(2-acetylaminoethoxy)]; 2-Nal; Aib; NH2) [Ac-[Pen]-QTWQ-[Pen]-[Phe[4-(2-acetylaminoethoxy)]-[2-Nal]-[Aib]-ENN-NH2]
pStat3 HTRF IC50 [3]: < 10 nM
